# Target: hCD52 peptide mimetope (affinity measurement of Table 1) (human)
# Test: affinity on a hCD52 peptide mimetope, method not stated (footnote of Table 1)
substance,measurement,value
Campath-1H (antibody),Kd,0.068 µM
